Measured values taken from the supplement of paper PMC12764529.
± gives the half width of the 95% confidence interval.

experiment: folding stability dG unfold from chymotrypsin proteolysis; higher = more stable
Outline: (§1)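 How resistant each design was to proteolysis was captured as K50, inferred by Bayesian fitting of sequencing counts. Unfolding free energy was then derived relative to a sequence-predicted unfolded-state K50 and a shared folded-state K50, per protease or combined. Digestion used trypsin and chymotrypsin at 11 threefold-diluted concentrations plus a no-protease condition, on mini-proteins under 80 residues without cysteine in a PA-tagged cDNA display construct. Designs were kept only when AlphaFold2 dimer inter-PAE was above 15.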

Sequence	folding stability dG unfold [kcal/mol]
SAGGSAIKLPPGEEYTIIMRNPQNGRPFKVPIKRVDPGQIQIEIENPKNGEKQKFTIPANDIEIVKSAGGSA [r15_381_TrROS]	-0.896 ± 0.8
SAGKPKVKVKKITVTITYDPETGTITIEATIEIDGKTIKLTITITLPEELRNLKPGDTITIEITIIIEPSAG [r5_714_TrROS_Hall]	2.86 ± 0.13
SAGGSAGGMLLVRIKVRRPDGSEETIVLEFESEEELKAAIEELLPPGWEVVEIELVPLGEELPESAGGSAGG [r6_872_TrROS_Hall]	4.402 ± 0.042
SAGGSAGGAERIKNLLEDYGFELKDVEMDEPGSTKIHITPDNPSLRKDIKDKLPPGNVDSITDTSAGGSAGG [r6_84_TrROS]	1.33 ± 0.12
SAGGSASVEIIFDPNKPTVTIYVPGPVDPNEPITLTLPGGPSLTITEIEVEKIGKEYVVKAKVTKLSAGGSA [r15_838_JUSTAS]	2.12 ± 0.03
SAKIEIIKKDGEYYLRITLENGKKKTIKLKGIKKIEIKNGKIYIYNKKTGKKIILKNAKIKKIEIEKVPSAG [r14_83_TrROS_Hall]	4.6 ± 0.18
SAKMSPEMRELVERLQDLYNENGYKVKIEMSNKPGMIRINVQMPNPRKKRKIKEALRGDGFPITRVEIYSAG [r14_284_TrROS]	0.929 ± 0.25
SAGGSAGGSAGGPVRIVMKPSDIEYLLEKFGVEPLEIEEVEEDYVVVTITPEALKEAGLGSAGGSAGGSAGG [r7_587_TrMRF]	0.737 ± 0.049
SAGGDFKPPVPTTQVLTFTIETSPEDPEKAKEIAEKLKKELLEKGAVKIEVTLDPEPGTVTVTVTLVKLSAG [r5_512_JUSTAS]	2.92 ± 0.063
SAGGMVILVKDKDGRWRELSEEEIRRLAEELERRYNLEVEEVELEDGERYYLIRIEPPEVPGLSEEELSAGG [r13_790_TrROS_Hall]	2.15 ± 0.13
SAGGSAVILIPIPPDDPNFWEMIKDFQEEGKPVIIRNPEGEWMVFKPNGPVKPVDSPEQLLEAGITSAGGSA [r15_94_TrROS]	0.994 ± 0.16
SAGGSAGGSAGGSMTITYDKENKTLTIKLPNGKKVLTVNLENMTPEQLKELAKKLGLEVSAGGSAGGSAGGS [r4_49_TrROS_Hall]	3.62 ± 0.076
SAGGSAGGSAGMRIVIEVPEDTTVEELAKKLADLGYEVEIRVERDENGRLLVVIEIRPKDSAGGSAGGSAGG [r11_1050_TrROS_Hall]	2.88 ± 0.12
SAGGLNINLPPGQEIELTLQVTHLFNGGNGDFGSMTHTYEIPIKIKPIPPVPKPEVERDPDGNYKVEDSAGG [r13_401_TrROS]	0.358 ± 0.26
SAGGMTRVLELTVPVDVIGPEELKALLEALAEDAEVEFEIGPDGLLRVRVTVDVPPDPDAPPDLDGESAGGS [r16_535_TrMRF]	2.4 ± 0.099
SAGGSLKIKIRNPDGMPFKIDVVRYPNHIRIKFKFGNKPVAFMIDPESDTINFRIPGWPFQIEIEPSAGGSA [r2_194_TrROS]	3.39 ± 0.092
SAGGGMLLTTTQTITLPNGTLLTVTSTFTLTPPAVPVPVVELDESSIAEYDPATGILTDPSVPTPIPVPSAG [r5_807_JUSTAS]	0.596 ± 0.11
SAGGKTVVIEAESLEEALAAIEALPPDVKKVVIFNKETGVLVEVTVDPKTGEIKEIKVYKIDPEKGKLSAGG [r13_945_TrROS_Hall]	2.861 ± 0.026
SAGGSAGGSITIEIPGASSLEEAIEQAEVVVNEIVKKGYPGKPIKVTVILPGTGEAFTFEVPLESAGGSAGG [r6_237_TrMRF]	2.4 ± 0.047
SAGGSAGGSAGPLTLTATFLSDYNYAVTVTLTFEVDENGNLSVSGEVEIRPVPPLGPGNASAGGSAGGSAGG [r11_728_TrMRF]	4.05 ± 0.11
SAGGSAGGSAGGGMTPVTTTTTVTVSPDATPVNFTTPDGTTVTVTPVPSSDTATVTTTVSSAGGSAGGSAGG [r7_796_JUSTAS]	0.104 ± 0.03

Sequence	folding stability dG unfold [kcal/mol]
SAGGENYTFEMEITIPIPLPNPNGKLKKLPIKVPIEYEYDDPAQRNQAMQNMIMRIIDLALKELGVPSAGGS [r16_339_TrROS]	2.12 ± 0.04
SAGGMPREVAKEMIENDKDAKVTFTIYRFPDGPVPSVTVEVIEADVKDPDAFLESVPEGWLVLVEPASAGGS [r16_116_TrMRF]	1.17 ± 0.11
SAKFRVSISYDPPDGYLTIMFRYPNPNQPITPEEIEEIAREILEERGHKVKIDEIHHEGNYFMIKIKLPSAG [r14_556_TrROS]	2.54 ± 0.11
SAGGSMPKGQEVKIEIEHRRHNGRRYWRVSVEVPNGKDIEIPFDDPEEMPPEMKKQIENLAKEIVKSAGGSA [r2_17_TrROS]	1.11 ± 0.25
SAGGPNFIVKIRIPMRKYERENDPGGKPKWEPVEPQRVEITIIFKGPPEQAKQIREELENHGLEVEPISAGG [r13_452_TrROS]	2.44 ± 0.098
SAGGSDVKTYTFVGIDPETGELVETTFRVTPLVPPVPVSVSVSLTLDVDPDGNLHLSLSVSVELGGSAGGSA [r2_326_TrMRF]	4.74 ± 0.081
SAGGSAGGSAPPNLKIEIDLQRHPEDDHIFLEMEATYPDDGKELKVMIMINPDDGKIGIMIMSAGGSAGGSA [r18_383_TrROS]	3.7 ± 0.29
SAGGSAGGSAGLIVTHPDGGVTTLRLTLTFTFEGPVGPPKTVTFEFTLTVAPNGTEVTLESAGGSAGGSAGG [r11_271_TrMRF]	5.11 ± 0.11
SAGGSAGGSAGGSGMTTTLLEQREFTLPNGEPVRVTVARFPGGEIVTETEDGVVTTDPLSAGGSAGGSAGGS [r4_111_JUSTAS]	0.281 ± 0.08
SAGGPGWVTVEFWIPIEPDPNQTRDDVKEKAEEIVHEMAEYHPQFGITNVKVDVDPEEGWVKVSIVWPSAGG [r13_1011_TrROS]	1.58 ± 0.15
SAGGSVDIKRIEIYHPPDDKIYIRIDAVASPEHPEDPELRKAQAEALRKPVIEELMKKLGIEPEELSAGGSA [r2_306_JUSTAS]	0.61 ± 0.073
SAGGSANVQVEQTGDGKIKIEFPWYGAEITLNPKKGDIEVEVLPNYKNGQPPPEDEVKNLAKEILDSAGGSA [r15_735_TrROS]	0.971 ± 0.047
SAGPADPGFLGTRTVPHPDGVVTVDVYRFAGTRVLITITLPDSTVPVEDPVESEEEALAFADAVVAEVGLSA [r9_758_JUSTAS]	2.27 ± 0.037
SASLPPGQVRSLPVDVTIETPEGQPRFTEPATLEPPPRLVVDVALPLPPGEVTITIRLPGPGVTLTIERSAG [r14_280_JUSTAS]	1.53 ± 0.16
SGLAPGEVVPEKFEREITDPETGKKYKVEVTTEIAPENPVRRVTVTTTPPDGTTTTTEEVIPPGEEYTLESA [r9_88_JUSTAS]	0.867 ± 0.092
SAGGSAGGGSMSVSYDPSTGNTITTTTTRSPTPLTTTTTTTTFPDGSTSTSTTTTAAPPPAPTTSAGGSAGG [r6_955_JUSTAS]	0.716 ± 0.024
SAGGSAGGSLKKGEKVKLRARIYEPGGGKLLAELEIEADVGKAEEIAEELRKAFPGYEVEIELSAGGSAGGS [r12_21_TrMRF]	3.24 ± 0.057
SSMPLEEIVERVAEELGIPEEELERIESVDPGVVDPSPEGPTRVELRITLRDPHSDTTTEYRVEVEDPGGSA [r9_230_JUSTAS]	-0.503 ± 0.46
SAGGSAGGSAGPEITVVKAPDEGYYYLIKLKVTYTLRDPETTAPLAEFEVEYYFLDRGSASAGGSAGGSAGG [r17_124_TrMRF]	4.91 ± 0.12
SAGGSAGGSAGMKVKTDPSSGPTVNKAYLENGTLILTTVTYDPSNGTTSTTTTVVPLSLLSAGGSAGGSAGG [r17_287_JUSTAS]	1.23 ± 0.22
SAGGEEEAVEKPFYQLPEKKPLKTVPMSREEALALARENPDLGILYAEEDGKLWKVDAETGTIEPLGSAGGS [r16_214_JUSTAS]	1.58 ± 0.11

experiment: folding stability dG unfold from trypsin proteolysis; higher = more stable
Outline: as §1

Sequence	folding stability dG unfold [kcal/mol]
SAGGSAIKLPPGEEYTIIMRNPQNGRPFKVPIKRVDPGQIQIEIENPKNGEKQKFTIPANDIEIVKSAGGSA [r15_381_TrROS]	0.0718 ± 0.074
SAGKPKVKVKKITVTITYDPETGTITIEATIEIDGKTIKLTITITLPEELRNLKPGDTITIEITIIIEPSAG [r5_714_TrROS_Hall]	3.4 ± 0.17
SAGGSAGGMLLVRIKVRRPDGSEETIVLEFESEEELKAAIEELLPPGWEVVEIELVPLGEELPESAGGSAGG [r6_872_TrROS_Hall]	4.55 ± 0.17
SAGGSAGGAERIKNLLEDYGFELKDVEMDEPGSTKIHITPDNPSLRKDIKDKLPPGNVDSITDTSAGGSAGG [r6_84_TrROS]	-0.0811 ± 0.14
SAGGSASVEIIFDPNKPTVTIYVPGPVDPNEPITLTLPGGPSLTITEIEVEKIGKEYVVKAKVTKLSAGGSA [r15_838_JUSTAS]	1.14 ± 0.04
SAKIEIIKKDGEYYLRITLENGKKKTIKLKGIKKIEIKNGKIYIYNKKTGKKIILKNAKIKKIEIEKVPSAG [r14_83_TrROS_Hall]	3.1 ± 0.18
SAKMSPEMRELVERLQDLYNENGYKVKIEMSNKPGMIRINVQMPNPRKKRKIKEALRGDGFPITRVEIYSAG [r14_284_TrROS]	1.62 ± 0.077
SAGGSAGGSAGGPVRIVMKPSDIEYLLEKFGVEPLEIEEVEEDYVVVTITPEALKEAGLGSAGGSAGGSAGG [r7_587_TrMRF]	1.1 ± 0.065
SAGGDFKPPVPTTQVLTFTIETSPEDPEKAKEIAEKLKKELLEKGAVKIEVTLDPEPGTVTVTVTLVKLSAG [r5_512_JUSTAS]	1.95 ± 0.069
SAGGMVILVKDKDGRWRELSEEEIRRLAEELERRYNLEVEEVELEDGERYYLIRIEPPEVPGLSEEELSAGG [r13_790_TrROS_Hall]	1.97 ± 0.059
SAGGSAVILIPIPPDDPNFWEMIKDFQEEGKPVIIRNPEGEWMVFKPNGPVKPVDSPEQLLEAGITSAGGSA [r15_94_TrROS]	1.03 ± 0.074
SAGGSAGGSAGGSMTITYDKENKTLTIKLPNGKKVLTVNLENMTPEQLKELAKKLGLEVSAGGSAGGSAGGS [r4_49_TrROS_Hall]	3.18 ± 0.2
SAGGSAGGSAGMRIVIEVPEDTTVEELAKKLADLGYEVEIRVERDENGRLLVVIEIRPKDSAGGSAGGSAGG [r11_1050_TrROS_Hall]	2.66 ± 0.088
SAGGLNINLPPGQEIELTLQVTHLFNGGNGDFGSMTHTYEIPIKIKPIPPVPKPEVERDPDGNYKVEDSAGG [r13_401_TrROS]	-0.0612 ± 0.076
SAGGMTRVLELTVPVDVIGPEELKALLEALAEDAEVEFEIGPDGLLRVRVTVDVPPDPDAPPDLDGESAGGS [r16_535_TrMRF]	1.82 ± 0.045
SAGGSLKIKIRNPDGMPFKIDVVRYPNHIRIKFKFGNKPVAFMIDPESDTINFRIPGWPFQIEIEPSAGGSA [r2_194_TrROS]	2.96 ± 0.096
SAGGGMLLTTTQTITLPNGTLLTVTSTFTLTPPAVPVPVVELDESSIAEYDPATGILTDPSVPTPIPVPSAG [r5_807_JUSTAS]	0.733 ± 0.066
SAGGKTVVIEAESLEEALAAIEALPPDVKKVVIFNKETGVLVEVTVDPKTGEIKEIKVYKIDPEKGKLSAGG [r13_945_TrROS_Hall]	1.22 ± 0.09
SAGGSAGGSITIEIPGASSLEEAIEQAEVVVNEIVKKGYPGKPIKVTVILPGTGEAFTFEVPLESAGGSAGG [r6_237_TrMRF]	2.02 ± 0.11
SAGGSAGGSAGPLTLTATFLSDYNYAVTVTLTFEVDENGNLSVSGEVEIRPVPPLGPGNASAGGSAGGSAGG [r11_728_TrMRF]	2.42 ± 0.1
SAGGSAGGSAGGGMTPVTTTTTVTVSPDATPVNFTTPDGTTVTVTPVPSSDTATVTTTVSSAGGSAGGSAGG [r7_796_JUSTAS]	1.24 ± 0.06
